These results are taken from PMC9320373, “Isolation and Characterization of Cell Envelope Fragments Comprising Archaeal S-Layer Proteins” (Nanomaterials, 2022).

The series concerns the molecule itself. Kind of series: negative-stain transmission electron microscopy with 2D image reconstruction; SlaA-enriched sacculi (lipids and SlaB removed by SDS washes) sonicated to fragments, on glow discharged grid, 2% uranyl acetate; Fourier domain processing; p3 hexagonal lattice.

B1: S-layer large protein (SlaA) from Saccharolobus solfataricus P2 (natural protein, UniProt Q980C7 36-1231, looked up)
chain: AAIYTIPSVTSVSNTSNIVINLFFNATSNSTVGAQASAFNYGLAINYTLDAITFTVVLPSGTSYPLIKLNAKNFANYGYYDLAHNSIVLLLNTTASSTAKELAYSYEQSIGVTPSASYKIYNYTNKTVNVNQYMNELPLSMLIYMATNGKYNNLASLPVGTKLEFTYAGVTYIIAVSPTVKLVGELLNPLYTANSKMLPGTNYAVGRSNITVAVYDNLITTTTSPFNFTLTYSSLAPALIYWFVIANTTYTNNGASTPTASFQAPPFKQYFPSNSTILYSAAPTKSSILMFNGQMNVTAHENVTLTLQTGTNIYTSPNFNVTPPGNYTFSGKLGVGFNGFIYQNGSATLTATIFNGTINFFFSSTGQKAAFTFFLVPIVPINLGDNNGATVIYNGVSLNTGFPQVVVMFNITGNFTKSGSNYLLYGSVYEAELKPLGSTQLQKLAGATDSTQFVGNLISSASSPLVSYFNYGESTTTITGTSLSFTVLMPLKFIVERLGYIYLVTFHIWGPSATVTVTGVDYHGTQIALGSFRAYVALPSFYTLPKTPLVGLTCDNMYTLAQVSDAGSVLETSTANSNANNATVIGPYDLMSNAGLHVAIYNGSKLVKSGNLGLLPNATTAPITTTITLNGQTVALTYSSAPTAIYPVDFKFEPGFSYSVTTNVIYNTSIPTYVVTVYMPLKYILQTKIVMWYVSPDYAAYFYYSSTGQYQTSNVTLTFANVTPELVMPQVFPVGKLYMPFGINDPYYVFYSSISIGPQSGVIEAVENGFNVGNITSITVELNGMNESIVLSPLNVSKLLISSNLGEVSQCSPLFTTTLFNISALASLLGLPNAAALNGSYLYVTYHDIISGAYVTNRTLLVVGQFYVMPPTTPGSVEWILTAKYINATTGIPVEISYAVVQQPSAKVVDINAANASITQIQVTGVKIVSKYATVTVMYNPSNASTIVYMNGMFVASYGGNLISSLSETSTFGVYYGAVVNLYVATGTLSSPNGTMYVVLGSHKVAVGTANLYTYAGYHFGPYTALPLVSNVTFTVQDPVTHATLTGQTTLGAFNNTPIRLAPLGVSIPQTAQYKVFYYYSTPLVLSPTSQYIVLSVTSVISYPYPFYIETVSFLGYNVTTGTPVPGTPAFQTVYSPSLGPGVVLQVPVQSYQFISLSTPSEPHTVVMFAVPFAGGPAISLYPTFLVYANVTAISS
modifications: glycosylated (sites not given)
notes: SlaA, S-layer large protein of Saccharolobus solfataricus P2; UniProt KB entry Q980C7; Mr 131 kDa as printed; Native protein isolated as an assembled S-layer lattice (sacculi and fragments), not as soluble monomers; also called surface layer large protein; SSO sacculi; source: endogenous, Saccharolobus solfataricus P2; sacculi extracted with sodium lauroylsarcosine and sonication (SEG), washed …
With B1, the binding result is recorded as “binds”.
